Paper doi:10.1101/2021.08.22.457263, “Reconstitution of surface lipoprotein translocation reveals Slam as an outer membrane translocon in Gram-negative bacteria” (bioRxiv, 2021)

Biological target: T1, M. catarrhalis transferrin binding protein B with C-terminal flag-tag (Mcat TbpB-flag) (Moraxella catarrhalis, UniProt P0DTW7 21-706, lipidated)
T1 sequence: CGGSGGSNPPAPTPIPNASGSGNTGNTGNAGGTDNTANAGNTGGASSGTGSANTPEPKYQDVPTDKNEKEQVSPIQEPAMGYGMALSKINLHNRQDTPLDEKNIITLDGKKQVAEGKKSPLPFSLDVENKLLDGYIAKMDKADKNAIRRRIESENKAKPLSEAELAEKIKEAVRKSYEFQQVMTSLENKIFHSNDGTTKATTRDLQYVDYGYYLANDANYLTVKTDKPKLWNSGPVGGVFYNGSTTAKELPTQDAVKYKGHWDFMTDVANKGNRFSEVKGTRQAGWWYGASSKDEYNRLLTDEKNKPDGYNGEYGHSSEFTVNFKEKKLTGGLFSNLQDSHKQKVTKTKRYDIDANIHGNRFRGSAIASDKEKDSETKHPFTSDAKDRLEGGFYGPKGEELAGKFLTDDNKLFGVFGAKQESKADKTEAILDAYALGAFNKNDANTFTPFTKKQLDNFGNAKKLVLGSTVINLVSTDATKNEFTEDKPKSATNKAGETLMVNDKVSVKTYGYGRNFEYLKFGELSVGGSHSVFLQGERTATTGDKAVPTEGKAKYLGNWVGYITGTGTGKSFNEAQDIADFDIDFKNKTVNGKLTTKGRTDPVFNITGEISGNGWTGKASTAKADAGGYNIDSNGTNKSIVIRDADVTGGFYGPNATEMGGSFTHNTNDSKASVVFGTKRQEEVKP
Assay: cell-based or functional assay

B1: His-tagged E. coli Skp, purified (natural protein, UniProt P0AEU7 21-161, looked up)
chain: ADKIAIVNMGSLFQQVAQKTGVSNTLENEFKGRASELQRMETDLQAKMKKLQSMKAGSDRTKLEKDVMAQRQTFAQKAQAFEQDRARRSNEERGKLVTRIQTAVKSVANSQDIDLVVDANAVAYNSSDVKDITADVLKQVK
Question: B1 was tested. Which “protection of urea-unfolded purified TbpB from proteinase K with empty liposomes, Skp added against SurA added” value did it give?
Answer: 2 fold
